Where a chain is given by its changes, count along the chain named.
B1: AB-H1 (antibody, V domains shown)
VH: QVQLVQSGAEVKKPGASVKVSCKASGYTFTDYNLHWVRQAPGQGLEWMGFIYPSNGITGYAQKFQGRVTMTRDTSTSTVYMELSSLRSEDTAVYYCARSTVDYFDYWGQGTLVTVSS
VL: DIQMTQSPSSLSASVGDRVTITCRASQSVSTSTYSYMHWYQQKPGKAPKLLIYYASNLESGVPSRFSGSGSGTDFTLTISSLQPEDFATYYCQHSWEIPLTFGQGTKLEIK
notes: Humanized variant of murine 2F5.1
B2: AB-H3 (antibody, V domains shown)
VH: B1 VH with V20I, M48I, V68A, M70L, R72V, V79A, V113L
VL: B1 VL
notes: as for B1
B3: AB-H6 (antibody, V domains shown)
VH: B1 VH with R72V, V79A, L112T
VL: B1 VL
notes: as for B1
B4: AB-H11 (antibody, V domains shown)
VH: B1 VH with G44S, M48I, A61S, R67K, V68A, M70L, R72V, T76A, V79A, L112T
VL: B1 VL
notes: as for B1
B5: AB-H22 (antibody, V domains shown)
VH: QVQLVQSGAEVKKPGASVKISCKASGYTFTDYNLHWVRQAPGQRLEWIGFIYPSNGITGYNQKFKNKATLTVDTSASTAYMELSSLRSEDTAVYYCARSTVDYFDYWGQGTTVTVSS
VL: B1 VL with Y53K
notes: Humanized variant of murine 2F5.1; also called AB-22
B6: AB-H24 (antibody, V domains shown)
VH: B5 VH with N61S, K65Q, N66G
VL: B1 VL with Y53K
notes: Humanized variant of murine 2F5.1; also called AB-24
B7: AB-H26 (antibody, V domains shown)
VH: B5 VH with I20V, N61S, K65Q, N66G, K67R
VL: B1 VL with Y53K
notes: Humanized variant of murine 2F5.1; also called AB-26
B8: AB-H71 (antibody, V domains shown)
VH: B5 VH with V11L, I20V, N61S, K65Q, N66G
VL: DIVLTQSPDSLAVSLGERATINCRASQSVSTSTYSYMHWYQQKPGQPPKLLIKYASNLESGVPDRFSGSGSGTDFTLTISSLQAEDVAVYYCQHSWEIPLTFGQGTKLEIK
notes: Humanized variant of murine 2F5.1; also called AB-71
B9: AB-14.1 (antibody, V domains shown)
VH: B1 VH with Y27A, L34F, M48I, K63D, R72V, T100D
VL: B1 VL with Y53K
B10: AB-14.2 (antibody, V domains shown)
VH: B1 VH with Y27A, L34Y, M48I, G66D, R72V, T100F
VL: B1 VL with S28D, Y53K
B11: AB-14.3 (antibody, V domains shown)
VH: B1 VH with L34Y, M48I, Y60S, R72V, T100D
VL: B1 VL with S28D, Y53K, A55V
B12: AB-14.4 (antibody, V domains shown)
VH: B1 VH with L34Y, M48I, R72V, R98D
VL: B1 VL with S28D, Y53K, A55V
B13: AB-14.5 (antibody, V domains shown)
VH: B1 VH with L34Y, M48I, R72V, T100D
VL: B1 VL with S28D, Q42R, Y53K
B14: AB-14.6 (antibody, V domains shown)
VH: B1 VH with L34Y, M48I, R72V, T100D
VL: B1 VL with S30G, Y53K, N57A
B15: AB-14.7 (antibody, V domains shown)
VH: B1 VH with L34Y, M48I, R72V, T100D
VL: B1 VL with S30G, Y53K
B16: AB-14.8 (antibody, V domains shown)
VH: B1 VH with L34Y, M48I, R72V, T100D
VL: B1 VL with S12P, S30G, Y53K, E59G
B17: AB-14.9 (antibody, V domains shown)
VH: B1 VH with L34Y, M48I, R72V, T100D
VL: B1 VL with D1G, S30G, Y53K, S56V
B18: AB-14.10 (antibody, V domains shown)
VH: B1 VH with L34Y, M48I, R72V, T100D
VL: B1 VL with T31A, Y53K, F87L
B19: AB-14.11 (antibody, V domains shown)
VH: B1 VH with L34Y, M48I, R72V, T100S
VL: B1 VL with S28D, Y53K, A55V
B20: AB-63.18 (antibody, V domains shown)
VH: B1 VH with A16S, F29H, M48I, R72V, T100D
VL: B8 VL with A55E
B21: AB-63.16 (antibody, V domains shown)
VH: B1 VH with L34Y, M48I, R72V, T100D
VL: B8 VL with S30H
B22: AB-63.17 (antibody, V domains shown)
VH: B1 VH with L34Y, M48I, R72V, T100D
VL: B8 VL with A25G, A55E

Target: T1, human CD33 on primary human monocyte-derived dendritic cells (human, UniProt P20138 18-364)
Assay: cell-based or functional assay

T1 sequence (P20138 18-364): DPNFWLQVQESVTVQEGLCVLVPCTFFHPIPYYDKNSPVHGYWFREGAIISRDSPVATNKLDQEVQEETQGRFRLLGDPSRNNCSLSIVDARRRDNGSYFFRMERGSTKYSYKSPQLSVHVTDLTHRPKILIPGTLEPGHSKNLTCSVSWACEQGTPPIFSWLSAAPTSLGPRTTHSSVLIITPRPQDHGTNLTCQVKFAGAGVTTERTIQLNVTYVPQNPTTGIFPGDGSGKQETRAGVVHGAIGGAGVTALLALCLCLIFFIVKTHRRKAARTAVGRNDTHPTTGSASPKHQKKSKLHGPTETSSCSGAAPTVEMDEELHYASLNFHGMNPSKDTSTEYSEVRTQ

Binder	Maximal Downregulation (% CD33 remaining)	Receptor downregulation (EC50)
B1	25%	0.127 nM
B2	21.2%	0.0933 nM
B3	20.6%	0.169 nM
B4	23.3%	0.0772 nM
B5	22.6%	0.0901 nM
B6	22.2%	0.0725 nM
B7	21.9%	0.0519 nM
B8	25.8%	0.0412 nM

Target: T1, human CD33 on primary human …
Assay: cell-based or functional assay
Remark: another data set of the same source

Binder	Maximal Downregulation (% CD33 remaining)	Receptor downregulation (EC50)
B9	18.6%	0.0927 nM
B10	23.8%	0.055 nM
B11	25.4%	0.043 nM
B12	27.6%	0.0582 nM
B13	26.4%	0.0342 nM
B14	24%	0.0324 nM
B15	23.4%	0.0351 nM
B16	21.2%	0.0234 nM
B17	26.1%	0.0399 nM
B18	20.9%	0.0494 nM
B19	27.5%	0.047 nM

Target: T2, human CD33 (human, UniProt P20138 18-259, limits assumed)
T2 construct: Human CD33 immobilized on the BLI sensor tip or the BIAcore C1 chip; also called Siglec-3
Assay: BLI (ForteBio), Fab 100 nM on immobilized CD33
Description: The affinities (KD) of the humanized antibodies for human CD33 were measured for each antibody by BioLayer Interferometry in a ForteBio assay according to standard techniques (Estep et al. (2013) MAbs 5(2): 270-8). […] The assay was carried out at room temperature.
The affinities of AB-H14 and its affinity-matured variants (Table 15) and AB-H63 and its affinity-matured variants (Table 16), for human CD33 were measured by Fortebio assay according to the method described in Example 1 above.

T2 sequence (P20138 18-259 limits assumed): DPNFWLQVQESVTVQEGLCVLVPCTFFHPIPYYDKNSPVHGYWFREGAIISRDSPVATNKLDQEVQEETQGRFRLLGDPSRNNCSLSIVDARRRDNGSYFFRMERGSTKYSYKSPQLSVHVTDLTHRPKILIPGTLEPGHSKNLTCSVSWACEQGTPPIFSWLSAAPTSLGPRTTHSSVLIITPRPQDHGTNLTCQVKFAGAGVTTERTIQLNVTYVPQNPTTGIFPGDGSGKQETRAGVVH

Binder	Fold affinity improvement over parental Ab (AB-H14)	Kd	koff	kon	Fold affinity improvement over parental Ab (AB-H63)
B9	9.73 fold	≤ 0.299 nM	≤ 0.0002 s⁻¹	670000 M⁻¹ s⁻¹	–
B10	14.4 fold	0.202 nM	0.0002 s⁻¹	991000 M⁻¹ s⁻¹	–
B11	12.3 fold	0.236 nM	0.0002 s⁻¹	847000 M⁻¹ s⁻¹	–
B12	13 fold	0.224 nM	0.0002 s⁻¹	895000 M⁻¹ s⁻¹	–
B13	13.7 fold	0.212 nM	0.0002 s⁻¹	945000 M⁻¹ s⁻¹	–
B14	9.83 fold	0.295 nM	0.000264 s⁻¹	894000 M⁻¹ s⁻¹	–
B15	11.8 fold	0.246 nM	0.0002 s⁻¹	813000 M⁻¹ s⁻¹	–
B16	13.6 fold	0.214 nM	0.0002 s⁻¹	935000 M⁻¹ s⁻¹	–
B17	13.4 fold	0.217 nM	0.0002 s⁻¹	921000 M⁻¹ s⁻¹	–
B18	13.2 fold	0.221 nM	0.0002 s⁻¹	906000 M⁻¹ s⁻¹	–
B19	14.1 fold	0.205 nM	0.0002 s⁻¹	974000 M⁻¹ s⁻¹	–
B20	–	0.613 nM	–	–	4.44 fold

Target: T2, human CD33
Assay: SPR (BIAcore), Fab over CD33 on C1 chip
Description: The affinity parameters for 10 of the 88 humanized antibodies (AB-H1, AB-H3, AB-H6, AB-H11, AB-H22, AB-H24, AB-H26, AB-H63, AB-H64, and AB-H71) were measured in a separate experiment by a more sensitive technique, surface plasmon resonance (BIAcore), and compared to Chimeric Ab and Chimeric Ab #2. BIAcore measurements were performed as follows: human CD33 was immobilized on the surface of a C1 chip, and Fabs were injected for 300 s to monitor association, followed by a 900 s flow in running buffer to monitor dissociation. The Fabs were measured at 5 concentrations: a high concentration of 27 nM and 3-fold serial dilutions.

Binder	Fold Change to Chimeric Ab	Kd	koff	kon
B1	1.03 fold	1.58 nM	0.00186 s⁻¹	1.18e+06 M⁻¹ s⁻¹
B2	1.43 fold	1.13 nM	0.0014 s⁻¹	1.23e+06 M⁻¹ s⁻¹
B3	1.18 fold	1.37 nM	0.00151 s⁻¹	1.1e+06 M⁻¹ s⁻¹
B4	1.22 fold	1.33 nM	0.00162 s⁻¹	1.22e+06 M⁻¹ s⁻¹
B5	0.62 fold	2.63 nM	0.00182 s⁻¹	690000 M⁻¹ s⁻¹
B6	0.27 fold	6.02 nM	0.00228 s⁻¹	379000 M⁻¹ s⁻¹
B7	0.28 fold	5.86 nM	0.00234 s⁻¹	400000 M⁻¹ s⁻¹
B8	0.87 fold	1.88 nM	0.00351 s⁻¹	1.87e+06 M⁻¹ s⁻¹

Target: T1, human CD33 on primary human …
Assay: cell-based or functional assay
Remark: another data set of the same source

Binder	Maximal Downregulation (% CD33 remaining)	Receptor downregulation (EC50)
B21	23.4%	0.0293 nM
B22	27.2%	0.0522 nM
B20	26.8%	0.0629 nM
